# Data reported in patent publication US20040175378A1, “Selected antibody compositions and methods for binding to aminophospholipids” (Board of Regents, The University of Texas System, priority 2002, published 2004).
# What was measured:
# RSV long strain = test: RSV-infected A-549 cells, plaque assay; conditions: MOI 1, 100 μg antibody per well
# Meth A fibrosarcoma = test: 3G4 tumor treatment; format: in vivo, mouse
# Method: In the subcutaneous model, mice are typically injected with 1×10^7 cells in 0.2 ml. Mice are not anesthetized, but are restrained using a steady grip of mouse skin exposing the right flank. A 1 ml syringe with a 23 gauge needle is used to inject 1×10^7 cells in 200 μl, just under the skin of the mice and a bleb will be seen. It is not unusual to observe a small amount of fluid leak from the injection site. A twisting motion may be used when withdrawing the needle from the subcutaneous injection to reduce this leakage. Tumor volume is measured by L×W×H.
# (§1) Treatment was repeated 3 times a week. Animals were monitored twice a week for tumor measurements.
# human CMV AD169 = test: CMV viral load by plaque assay; format: cell-based; conditions: for decrease in viral titer: high m.o.i.
# [1] = Binding to heparin, heparan sulfate and DNA
# [2] = monkey, in vivo
# [3] = test system: H2O2-treated HL-60 tumor cells; test: Macrophage phagocytosis of PS-positive tumor cells; conditions: 5 μg/ml, vs isotype-matched control antibody
# [4] = test system: orthotopic MDA-MB-231 breast cancer; test: 3G4 tumor treatment and histology; format: in vivo, mice
# Method: FIG. 17A and FIG. 17B. […] At the conclusion of treatment, animals were perfused and tumors were snap-frozen, cut and stained with an antibody to murine CD31 (rat, anti-mouse CD31), a pan-endothelial marker of murine vasculature (FIG. 17A), or embedded in paraffin and strained with H&E (FIG. 17B).
# In the orthotopic model, 1×10^7 cells in 0.1 ml DMEM are typically injected into MFP of anesthetized mice. Mice are anesthetized with 0.075 ml of mouse cocktail injected IP. The mouse cocktail is 5 ml Ketamine (100 mg/ml); 2.5 ml Xylazine (20 mg/ml); 1 ml Acepromazine (10 mg/ml); 11 ml sterile water. Dosage is 0.1 ml per 20-30 grams body weight via the IP route for a duration of 30 minutes.
# Once the mouse is anesthetized, as measured by no response to toe/foot pinch, the mouse is laid on its left side and wiped with 70% ethanol just behind the head and around the right forearm/back area. […] 0.1 ml of cells are injected into the fat pad using a 1 ml syringe and a 27-gauge needle, producing a bleb in the fat pad. The incision is closed using a 9 mm sterile wound clip. The mouse is returned to its cage and observed until it has wakened from anesthesia and is mobile. Post-operative health status is determined, and if any signs of distress are observed, the animal is given acetaminophen (0.24 mg/ml)+codeine (0.024 mg/ml) in the drinking water. The wound clip is removed after 1 week. This method is used so that the cells are accurately placed into the selected site and not into the subcutaneous region. Tumors will be approximately 200 μl in volume (L×W×W) in 14-15 days and the take rate is essentially 100%.
# as §1
# Toxicity of 3G4 in mice = format: in vivo, BALB/c mice
# Excerpt: The following parameters were specifically examined.
# There were no physical signs of toxicity, e.g. hair loss, loss of appetite, etc. […] Marrows in the treated animals were essentially completely cellular (as would be expected for a young mammal). Erythroid, granulocytic, lymphocytic progenitors and megakaryocytes were present in normal numbers.
# Mice retain normal physical signs, bone marrow cellularity, white blood cell counts, histology and coagulation functions.
# [5] = ELISA binding to anionic phospholipids in 5 mM EDTA (Ca2+ requirement)
# Method: The specificity of the 9D2 antibody binding was validated by using control rat IgM of irrelevant specificity (Pharmingen, San Diego, Calif.). The specificity of annexin V binding to phospholipids, which is Ca^2+-dependent, was determined by diluting the reagent in the DPBS containing 5 mM EDTA. Additional negative controls consisted of washing the plates with the binding buffer containing 0.2% of a detergent Tween 20. This treatment extracts lipids, thus removing the phospholipid that was absorbed to plastic. Neither 9D2 antibody nor annexin V bound to detergent-washed plates.
# Pichinde virus = format: cell-based
# mCMV RVG102 = test: Survival of mCMV-infected mice; format: in vivo, Balb/C mice; conditions: 1 mg/mouse i.p. day 1, 0.5 mg/mouse every four days until day 26; past 90 days
# [6] = Liposome competition for 3G4 binding to immobilized PS; conditions: 3G4 0.1 μg/ml
# Method: Liposomes were prepared from solutions of 5 mg of a single phospholipid in chloroform. The solutions were dried under nitrogen to form a thin layer in a round-bottomed glass flask. Ten ml of Tris buffer (0.1 M, pH 7.4) were then added and the flask was sonicated five times for 2 min. […] The mixture was added to PS-coated plates (after standard blocking), incubated for 1 hour, washed and the secondary antibody added. After 1 hour, the plates were washed and developed for 5 minutes using OPD.
# [7] = test system: orthotopic MDA-MB-435 breast cancer; test: 3G4 and ch3G4 tumor treatment; format: in vivo, mice
# Method: Tumors were also established using MD-MBA-435s cells and treated as described above. […] The treatment of large L540 tumors, MDA-MB-231 and MD-MBA-435s tumor cells for 60 days is shown in FIG. 8D, FIG. 8E and FIG. 8F. The antibodies caused tumor vascular injury, thrombosis and necrosis and retarded tumor growth, with no evidence of toxicity.
# MD-MBA-435s lucerifase cells were obtained from Dr. Angels Sierra Jimenez, Barcelona, Spain and were grown in 10% DMEM. Mice were injected with tumor cells as described as above, and at 2 weeks post injection, the tumors were measured and the volume recorded. […] Treatment was initiated by IP injection (800 μg) at day 15 and continued with injections of 200 μg every two to three days until the final injection of 400 μg at day 35. Tumor volumes and mouse body weights were measured on injection days. Mice were sacrificed and perfused with saline for 12 minutes. The organs and tumor were removed, snap-frozen in liquid nitrogen and the tumor sectioned for immunohistochemistical analysis.
# [8] = m.o.i. 0.01 pfu/cell, 100 μg/ml
# [9] = 100 μg IP three times a week for 2 to 3 weeks
molecule,measurement,setting,value
"3G4: mouse IgG3 kappa monoclonal antibody binding PS and other anionic phospholipids; hybridoma ATCC PTA 4545 (antibody, V domains shown) VH: EVQLQQSGPELEKPGASVKLSCKASGYSFTGYNMNWVKQSHGKSLEWIGHIDPYYGDTSYNQKFRGKATLTVDKSSSTAYMQLKSLTSEDSAVYYCVKGGYYGHWYFDVWGAGTTVTVSSATTTAPSVYPLVP VL: DIQMTQSPSSLSASLGERVSLTCRASQDIGSSLNWLQQGPDGTIKRLIYATSSLDSGVPKRFSGSRSGSDYSLTISSLESEDFVDYYCLQYVSSPPTFGAGTKLELKRADAAPTVFIFGRIP",decrease in viral titer,RSV long strain,2 log10
same,mice with long-term complete remissions,Meth A fibrosarcoma; Meth A-bearing mice,50%
same,growth retardation,Meth A fibrosarcoma; syngeneic Meth A,90%
same,decrease in viral titer,human CMV AD169; addition delayed to 48 hours,2 log10
same,decrease in viral titer,human CMV AD169; addition up to 24 hours after infection,5-6 log10
same,decrease in viral titer as compared to GV39G-treatment,"human CMV AD169; m.o.i. 0.01 pfu/cell, 50 μg/ml",3.5 log10
same,decrease in viral titer as compared to GV39G-treated cells,human CMV AD169; [8],6 log10
same,inhibition of viral replication,human CMV AD169; [8],approximately 99.9999%
same,inhibition of viral replication compared to GV39G,"human CMV AD169; m.o.i. 3, 50 μg/ml",3 logs
same,decrease in viral titer as compared to GV39G-treated cells,"human CMV AD169; m.o.i. 3, 100 μg/ml",5 log10
same,"binding to heparin, heparan sulfate or double or single stranded DNA",[1],does not bind detectably
same,side effects,[2],no side effects have been observed
same,increase in phagocytosis of PS-positive cells by macrophages,[3],more than three fold
same,mice with long-term complete remissions,[4]; MBA-MD-231 tumors,30%
same,"reduction in microvascular density, treated vs. untreated mice",[4]; histological examination,70%
same,growth retardation,[4]; orthotopic MDA-MB-231,50%
same,blood cell counts,Toxicity of 3G4 in mice; [9],no changes in blood cell counts
same,bodyweight,Toxicity of 3G4 in mice; [9],gained weight at the same rate as BBG3 treated mice
same,toxicity,Toxicity of 3G4 in mice; 1 mg purified 3G4 intraperitoneally,no toxicity was observed
same,toxicity,"Toxicity of 3G4 in mice; more than 200 mice, 0.1 mg three times a week for 2-3 weeks",no instance of toxicity has been observed
same,binding to anionic phospholipids in the presence of 5 mM EDTA,[5],unaffected by the presence of 5 mM EDTA
same,infected cells,Pichinde virus,about one in about a hundred cells
same,survival,mCMV RVG102,100%
same,binding to PS adsorbed to ELISA plates in the presence of liposomes,[6],"blocked by liposomes prepared from PS, PA, PI, PG and CL"
same,tumor growth as opposed to control,"[7]; i.p. 800 μg day 15, 200 μg every two to three days, 400 μg day 35",effectively retarded tumor growth
same,growth retardation,[7]; orthotopic MDA-MB-435,70%
